Measured values: publication PMC11298593, “ArcS from Thermococcus kodakarensis transfers L-lysine to preQ0 nucleoside derivatives as minimum substrate RNAs” (The Journal of Biological Chemistry, 2024)

Experiments:
purified protein [1] = substrate: N#Cc1cn([C@@H]2O[C@H](COP(=O)(O)O)[C@@H](O)[C@H]2O)c2nc(N)[nH]c(=O)c12; assay: purified protein; format: biochemical, Thermococcus kodakarensis; details: 200 μM lysine co-substrate, pH 7.6, 5 mM MgCl2, 50 mM KCl, no 2-mercaptoethanol, 60 °C, unit μM from text b23 (table heading prints μmol)
purified protein [2] = substrate: NCCCC[C@H](N)C(=O)O; assay: purified protein; format: biochemical, Thermococcus kodakarensis; details: 204 μM S. cerevisiae tRNA-Phe-preQ0 co-substrate, pH 7.6, 5 mM MgCl2, 50 mM KCl, 60 °C, labelled compound, unit μM from text b13 (table heading prints μmol)

B1: ArcS and RaSEA complex (ArcS-RaSEA complex) (Thermococcus kodakarensis KOD1) (protein)
chain: MEVIKHEGPGRLGVVRLGDYSFRTPALVGIDFTLSPFNSFFHPKEPGEYDFNLAPSIPLGFYTPDEVIQKAIGRLWSVNYDGFNAFYLPALRRTEYLEEFFKIIDRHNFDAVYLGNSKILIKEYRYFVRILRELRERFPNVMIIADLEPFFYPLAVYLGIDAFDTRSLKLYDFEGKGFTQFSPFLWSNEPNSLDFAREVILLVRKALEEGKLRYLVENFFPTQYNAGILRIADLEHPDYLEKYTPIQKETVYFISDASIRRPEVKRWHERVLERFTPPKNVELLLLFPCSAKKPYSFSRSHTLYRRAVKEALGSGTSKVHELILTSPFGVVPREWEWLAKYDIVVTGHWSEEEIKPAAELLAKTLEKYPEDIPIVAHLDEAYVEIAKLASELSGREIIFTDVKNGTTSHESLRSLTETLREFQIEGTKEDRTYRYFENIRKVFDFYFGVGAGEAILPENGQVKGSKMLRIFVEGQQTGTFTDGVISVTPYGMQRIYDALKSYWVKIDFELRGDVFAVGVEEADPRIRPDDIVGIVRDEKVVGVGKAVLSGEEMVRAKKGVAVKVRKRV
notes: recombinant complex expressed in E. coli, purified aerobically (RaSEA apo, no Fe-S cluster); His x 6-ArcS given for the co-expression; with Archaeosine synthase subunit beta
Purified protein [1]
  Km: 433.4 ± 6.0 µM
  kcat: 0.387 ± 0.0617 s⁻¹
Purified protein [2]
  Km: 40.9 ± 8.7 µM
  kcat: 0.102 ± 0.0117 s⁻¹
